Laboratory results: patent US20260227403A1 (HENRY M JACKSON FOUNDATION FOR THE ADVANCEMENT OF MILITARY …, published 2026)

Assays:
[1] = biological target: T1, ERG3 (pCMV-ERG3 plasmid, Exons 5-16, NM_001136154) (UniProt P11308-3 40-486); assay: immunoblot of cell lysates (HEK-293 2 µg per lane) probed with 29E4; the protein is shown present in panel C
T1 construct: Expressed in HEK-293 cells and tested as cell lysate on an immunoblot; also called ETS Transcription Factor ERG
T1 sequence (looked up): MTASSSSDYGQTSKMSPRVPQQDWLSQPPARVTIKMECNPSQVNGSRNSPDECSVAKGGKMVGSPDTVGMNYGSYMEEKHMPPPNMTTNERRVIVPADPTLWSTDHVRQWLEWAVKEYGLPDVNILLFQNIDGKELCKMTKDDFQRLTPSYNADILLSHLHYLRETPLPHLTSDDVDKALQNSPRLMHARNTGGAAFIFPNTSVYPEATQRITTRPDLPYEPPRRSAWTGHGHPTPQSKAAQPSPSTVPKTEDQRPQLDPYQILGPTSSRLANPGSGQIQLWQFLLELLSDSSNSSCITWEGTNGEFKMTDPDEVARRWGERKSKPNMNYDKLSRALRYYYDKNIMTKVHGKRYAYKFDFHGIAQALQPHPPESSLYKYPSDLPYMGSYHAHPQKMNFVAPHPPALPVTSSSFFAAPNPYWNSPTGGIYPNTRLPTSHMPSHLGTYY
Method: Immunoblots using antibodies against ETV1 (A and H), ETV4 (B), ERG (C), SPDEF (D), FLI1 (E), FLAG (F), and GAPDH (G), as a loading control. […] PC3 cells were transfected with 25 nM non-targeting (NT) siRNA or ETV-1 siRNA oligos (lanes 1 and 2, respectively). […] were infected with either a control vector (lane 10) or adenoviral vector expressing FLI1 (lanes 11).
Cell lysates were then cleared by centrifugation at 10,000×g for 15 minutes at 4° C. and transferred to fresh tubes. Protein concentration was measured using Protein Assay Reagent (Bio-Rad, Hercules, CA). […] Separated proteins were transferred onto PVDF membranes using a Trans-Blot SD semi-dry transfer cell (BioRad) at 25 V for 90 minutes. Membranes were blocked in blocking buffer (Tris buffered saline with 0.25% Tween 20 (TBST) containing 1% BSA) for one hour at room temperature before incubation with primary antibodies (1 ng/mL) for 12 hours at 4° C. Membranes were then washed with wash buffer (TBST) in three ten-minute washes before treatment with IRDye 680RD conjugated goat anti-rabbit or IRDye 800 RD conjugated goat anti-mouse secondary antibodies (LI-COR Biosciences, Lincoln, NE) for three hours at room temperature.

P37 = biological target: T2, P37; assay: ELISA: 1 µg peptide coated per well, 29E4 at 20 ng/mL, HRP goat anti-rabbit Ig 1:16,000, ABS 450 nm, duplicates [CONT. 1]
T2 construct: C-terminal truncation of P1
T2 peptide: QRQMSEPNIPFPPQGFKQ

P41 = biological target: T3, P41; assay: as above
T3 construct: N-terminal truncation of P1
T3 peptide: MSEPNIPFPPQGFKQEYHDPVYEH

[2] = biological target: T4, P7 (alanine substituted, FIG. 3 panel E); assay: ELISA: 500 ng peptide coated per well, 29E4 at 40 ng/mL, HRP goat anti-rabbit Ig 1:16,000, ABS 450 nm, duplicates [CONT. 2]
T4 construct: not the overlapping peptide P7 of panels A and C; also called E217 to alanine
Source text: (§1) HRP Goat anti-rabbit Ig was applied at 1:16,000 dilution in all reactions.
(§2) Peptides were synthesized to achieve ≥70% HPLC purity by a commercial vendor (GenScript Biotech, Piscataway, NJ). Peptides were reconstituted in either water, or with addition of acetonitrile, methanol, 10% acetic acid, or DMSO, depending on the overall charge of each peptide. Key residues required for mAb binding were probed by ELISA using overlapping peptides, truncated peptides and alanine substituted peptides. Reactions were performed in duplicate using NUNC 96-well flatbottom MaxiSorp plates (Thermo Scientific). After coating each well with 500 ng of peptide in 100 μL coating buffer (50 mM NaHCO₃, pH 9.6), the plates were sealed and incubated at 4° C. overnight. […] Plates were then washed once with wash buffer, incubated with 100 μL mAb 29E4 (serially diluted from 1 mg/mL) for 1 hour at 37° C. Plates were further washed four times with wash buffer, and then incubated at 37° C. with 100 μL of a horse radish peroxidase (HRP)-conjugated secondary antibody against the primary antibody, diluted 1:16,000 according to manufacturer's protocols (KPL, Inc., Gaithersburg, MD). After washing four times with wash buffer, 100 μL of K-Blue Aqueous TMB substrate (Neogen, Lexington, KY) was added to the plates and incubated uncovered for 30 minutes at room temperature. To stop the reaction, 100 μL of 2 N Sulphuric acid was added to each well and absorbance were measured immediately at 450 nm. All dilutions of reagents were performed in ELISA diluent (20% NGS in 1×PBS with 0.1% Triton-X 100).

[3] = biological target: T5, P8 (alanine substituted, FIG. 3 panel E); assay: as above
T5 construct: also called P218 to alanine
Source text: as §1, §2

[4] = biological target: T6, P15 (alanine substituted, FIG. 3 panel E); assay: as above
T6 construct: also called Q225 to alanine
Source text: as §1, §2

[5] = biological target: T7, P24 (alanine substituted, FIG. 3 panel E); assay: as above
T7 construct: also called P234 to alanine
Source text: as §1, §2

[6] = biological target: T8, P28 (alanine substituted, FIG. 3 panel E); assay: as above
T8 construct: also called H238 to alanine
Source text: as §1, §2

[7] = biological target: T9, alanine substituted peptide P12 (F222 to alanine) (human); assay: as above
T9 construct: The entry already carries the substitution
Source text: as §1, §2

Measured: binding result

T8 sequence (peptide, as listed by the source): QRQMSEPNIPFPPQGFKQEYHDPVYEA
T7 sequence (peptide, as listed by the source): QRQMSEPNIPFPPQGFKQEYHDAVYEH
T9 sequence (peptide, as listed by the source): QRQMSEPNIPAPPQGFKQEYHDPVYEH
T4 sequence (peptide, as listed by the source): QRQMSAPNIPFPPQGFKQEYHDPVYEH
T6 sequence (peptide, as listed by the source): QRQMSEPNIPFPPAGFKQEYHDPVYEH
T5 sequence (peptide, as listed by the source): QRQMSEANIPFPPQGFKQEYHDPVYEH

B1: ETV1 rabbit monoclonal antibody (29E4) (antibody, V domains shown)
VH: QELEESGGDLVKPGASLTLTCTASGFFFSAENHICWVRQAPGKGLEWIGCVYIGSYVGGSGDPYYASWAKGRFTISKTSSTTVTLQMSSLTAADTATYFCARDLGSLWGPGTLVTVSS
VL: DVVMTQTASSVSAAVGGTVTIACQSSQSVYDNNNLAWFQQKPGQPPKRLIYSASTLASGVSSRFKGSGYGTQFTLTISDVQCDDAATYYCVGAFSGYIFVFGGGTEVVVK
notes: constant regions are not; also called 29E4 mAb; ETV1 29E4 mAb
no binding (tested: 40 ng/mL): [7]
no binding: [1]
binds: all other assays above
